This data set can be described thus: yeast display, Sf9 membrane polyspecificity reagent, FACS + sequencing; frameworks hold sequencing errors. Summed up:
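Galactose-induced (36–48 hours) yeast carrying a synthetic nanobody display library were exposed to 10% biotinylated, detergent-solubilized Sf9 membrane reagent at 4 °C for 1 hour. FACS followed streptavidin microbead enrichment, using low and high (top ~1%) gates for expression (anti-HA) and reagent binding (streptavidin). Colony PCR, MiSeq 2 × 250 sequencing and CDR-length filtering followed. Labels for polyreactivity reflect the gate of origin.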
Regarding “QVQLVESGGGLVQAGGSLRLSCAASGSTFYFYVMGWYRQAPGKERELVAAITWSGGRTSYADSVKGRFTISRDNAKNTVYLQMNSLKPEDTAVYYCAKDLQNSSHPSRYDYWGQGTQVTVSS”, the “polyreactivity (PSR sort gate)” value is listed as “low polyreactivity”.
Consider “QVQLVESGGGLVQAGGSLRLSCAASGSTFNSYAMGWYRQAPGKEWELVAAITSSVGSTYYADSVKGRFTISRDNAKNTVYLQMNSLKPEDTAVYYCAADYFSFWYFSGYDYWGQGTQVTVSS”, for which the “polyreactivity (PSR sort gate)” value is given as “low polyreactivity”.
As to “QVQLVESGGGLVQAGGSLRLSCAASGITFLHYAMGWYRQAPGQERELVAAIDYSGGSTYYADSVKGRFTISRDNAKNTVYLEMKSLKPEDTAVYYCNARVPRYNGGSTMEYWGQGTQVTVSS”, the “polyreactivity (PSR sort gate)” value was “high polyreactivity”.
The same measure for “QVQLVESGGGLYQAGGSLRLNCAASGYIFQTYAMVWYRQAPGKEREFVAAITSGAGRTSYADSVKGRFTISRDNAKNTVYLELNSLIPEVTAVYYCNARGRKRSYHRKSSDPYGYWGQGNQVTVSS”: “high polyreactivity”.
Then “QVQLHESGGGLVQAGGGLRLSCAASGSISSTGFMGWYRQAPGKEREPVAAIAPGTTTYYADSVKGRFTISRDNAKNTVYLQMNSLRPEDTAVYDCADFTDNRVAFLYWGQGTQVTVSS”, with “low polyreactivity”.
Then “QVQLVESGGGLVQAGGSLRLSCAASGLTFVDYAMGWYRQAPGKERELVAAISWSGGSTYYADSVKGRFTISRDIAKNTVYLQMNSLKPEDTAVYYCAAETQGWYPWGFYWGQCTQVTVSS”, with “low polyreactivity”; and “QVQLVESGGGLVQAGGSLRLSCAASGITFKYYAMGWYRQAPGKERELVAAISRGGTTSYADSVKGRFTISRDNAKNTVYLQMNSLKPEETAVYYCAAKYWWYPYFTVDYDYWGQGTQVTVSS”, with “high polyreactivity”; and “QVQLEESGGGLVQAGGSLRLSWAASGSTFSVNAMGWYRQAPGKERELVARITNGGSTYYADSVKGRFTISRDNAKNTVYLQMNSLKPEDTAVYYCAAKLGSYIYHKQRDWGQGTQVTVSS”, with “low polyreactivity”.
Consider “QVQLVESGGGLVQAGGSLRLSSAASGRIFKYYAMGWYRQAPGKERELVAAISWRGGRTYYADSVKGRFTISRDNAKNTVYLQMNSLKPEDTAVYYCAAEWYATMGYWGQGTQVTVSS”, for which the “polyreactivity (PSR sort gate)” value is “low polyreactivity”.
Then “QVQLVESGGGLVQAGGSLRLSCAASGRSFNYNTMGWYRQAPGKERELVAAINKGGTRTYYADSVKGRFTISRDNAKNTVYLQMNSLKPEDTAVYYCAARLYSYDYWGQGTQVTVSS”, with “high polyreactivity”.
The same measure for “QVQLVESGGGLVQAGGSLRLSCAASGIPRNTMGWYRQAPGKERELVASISTSGGSTYYADSVKGRFTISLDNAKKTVYLQMNSLKPEDTAVYYCAKKAYASRYFIYDYWGQGTQVTVSS”: “low polyreactivity”; for “QVQLVESGGGLVQSGGSLRLSCAASGRIFRAYAMGWYIQAPGQERELVADITSGSGSTYYADSVKGRFTISRDYANNTVYLHMNSLKTEDTAVYYCAAYVLIRVWEYYYWGQGTQVNVSS”: “low polyreactivity”.
The same measure for “QVQLVESGGGLVQAGGSLRLSCAASGRNFGIYAMGWYRQAPGKERELVARITGGGSTNYADSVKGRFTISRDNAKNTVYLQMNSLKPEDTAVYYCAATVRRIVGNITRYDYWGQGTQVTVSS”: “low polyreactivity”; for “QVQLVESGGGLVQAGGSLRLSCAASGRTFSTYAMGWYRQAPGKERELFAAISSGGGRTYYADSVKGRFTISRDNAKNTVYLQMNSLKPEDTAVYYCAADRYFRSRRSYEYWGQGTQVTVSS”: “low polyreactivity”; for “QVQLVESGGGLVQAGGSLRLSCAASGRIFYHYAMGGYRPAPGKERELVAAISSSTGRSYYADSVKGRFTFSRDNAKNTVYLQMNSLKPEDSAVYYCATTPGYYGYISPRIRLYDYWGQGTQVTVSS”: “high polyreactivity”.
With “QVQLVESGGGLVQAGGSLRLSCAASGFTFRLVNAMGWYRQAPGKERELVAGINSGDITYYADSVKGRFTISRDNAKNTVYLQMNSLKPEDTAVYYCAARVAWGYDYWGQGTQVTVSS”, the “polyreactivity (PSR sort gate)” value is recorded as “low polyreactivity”.
Then “QVQLVESGGGLVQAGGSLRLSCAASGITLVTYAMGWYRQAPGKERELVAAISRSGGRTYYADSVKGRFTISRDNAKNTVDLQMNSLKPEDTAVYYCATRYHVGKDLYGYWGQGTQVTVSS”, with “high polyreactivity”; and “QVQLVESGGGLVQAGGSLRLSCAASGSTFWRYAMGWYRQAPGKERELVAGITWNGGSTYYADSVKGRFTISRDNAKNTVYLQMNSLKPEDTAVYYCAARRTWGYIYRLGYGMDYWGQGTQVTVSS”, with “high polyreactivity”; and “QVQHVESGGGLVQAGGSLRLSCAASGRTFFYNTMGWYRQAPGKERELVARITRGGSTYYADSVKGRFTISRDNAKNTVYLQMNSLKPEDTAVYYCAAGYWRGYLLYGFDYWGQGTQVTVSS”, with “high polyreactivity”.
The same measure for “QVQLVESGGGLVQAGGSLRLICAASGRIWVNAMGWYIQAPGKQREFVAAISTSSASTYYADSVKGRFTISRDNAKNTVYLQMNSLKPEDTAVYYCAARYLGKKYYYWGQGTQVTVSS”: “high polyreactivity”.
Regarding “QVQLVESGGGLVQAGGSLRLSCAASGRIFKYYGMGWYRQAPGKERELVAAITRGDSTNYADSVKGRFTISRDNAKNTVYLQMNSLKPEDTAVYYCNVGTRRGYDYWGQGTQVTVSS”, the “polyreactivity (PSR sort gate)” value is “high polyreactivity”.
For the sequence “QVQLVESGGGLVQAGGSLRLSCAASGIIFDHNAMGWYRQAPGKERELVAAISTGGGNTYYADSVKGRFTISRDNAKNTVYLQMNSLKPEDTAVYYCATEPGYSYLTSYKYVYWGQGTQVTVSS”, the “polyreactivity (PSR sort gate)” value is “low polyreactivity”.
The same measure for “QVQLVESGGGLVQAGGSLRLSCAASGYIFRVYAMGWYRQAPGKERELVAAISGSGGRTYYADSVKGRFTISRDNAKNTVSLQMNSLKPEDTAVYYCAAYRVSDYDYWGQGTQVTVSS”: “high polyreactivity”; for “QVQLVESGGGLVQAGGSLRLSCAASGITFYQYAMGWSRQAPGKERELVAAIRWSGSSTYYADSVKGRFTISRDNAKNTVYLQMNSLKPEDTAVYYCAAAPGGWPGEYWGQGTQVTVSS”: “low polyreactivity”.
Then “QVQLVESGGGLVQAGGSLRLICAASGFIFSSHAMGWYRQAPGKERELVAAISRSGGRTYYADSVKGRFTITRDNAKNTVYLQMNSLKPEDTAVYYCAAKRWWQYYWGQGTQVTVSS”, with “high polyreactivity”; and “QVQLVESGGGLVQAGGSLRISCDASGSTFSRYTLGWYRQAPVKEREMVAAISYRGGSTYYADSVKGRFTISRDNAKNTVYLQMNSLKPEDSAVYYCNADVPRIPYPDMEYWGQGTQVTVSS”, with “low polyreactivity”.
Then “QVHLVESGGGLVQAGGSLRLSCAASGSTFTDYTIGWYRQAPGKERELVARIRSRGARTYYADSVKGRFTISRDNAKNTVYLQMNSLKPEDTAVNSCNKRWGCLRASPAYDYWGQGTQVTVSS”, with “high polyreactivity”; and “QVQLVESGGGLVQAGGSLRLSCAASGFTFQKYAMGWYRQAPGKERELVAAISSSGGRTYYADSVKGRFTISRDNAKNTVYLQMNSLKPEDTAVYYCNAVPGYVYYYQYWGQGTQVTVSS”, with “high polyreactivity”.
For the sequence “QVQLVESGGGLVQAGGSLRLSCAASGYTFKLYAMVWSRQAPGKERELVAAIRRGGTTNYADSVNGRFTISRDNSKNTVYFQMNSLKPADTAVYYCAADGWYPGFYYPYTEFDYWGQGTQVTVSS”, the “polyreactivity (PSR sort gate)” value is on record as “high polyreactivity”.
Then “QVQLVESGGGLVHAGGSLRVSCAASGSISDSYAMGWYREAPGKERELVAAITSGDSTYYADSVKGRFTISLDNAKNTVYLQMNSVKPEDTAVYYSAKRVSRVRGYGFTDWSEYDYWGQGTQVTVSS”, with “low polyreactivity”.
Then “QVHLLESGGGLVQAGGSLRLSCAAPGSTLFNYDMGWSRQAPGKERELLAAITTSGDSTYYADSVKGRFTISRDNAKNTVYFQMNSLKPEDTAVYYCNADVFKTVFYIDRYYYWGQGTKVTVSS”, with “low polyreactivity”.
The same measure for “QVQLVESWGGLVQAGGSLRLSCAASGRIFDPYAMGWYRQAPGKERELVATITLRGGITYYADSVKGRFTISRDNAKNTVYLEMNSLKPEDTAVYYCAKKVRYYVRWEYDYWGQGTQVTVSS”: “low polyreactivity”; for “QVQLVESGGGLVQAGGSLRLSCAASGSIYHYYAMGWYRQAPGKERELVAAISWSGGRTNYADSVKGRFTISRDNAKNTVYLQMNSLKPEDTAVYYCAARARYPNWTYYYWGQGTQVTVSS”: “high polyreactivity”; for “QVQLVESGGGLVQAGGSLRLSCAASGRIFYNYAMGWYRQAPGKERELVAAISSSGGSTYYADSVKGRFTISRDNAKNTVYLQMNSLKPEDTAVYYCAVRKQYSGRYYRAYDYWGQGTQVTVSS”: “high polyreactivity”.
On to “QVQLVESGGGLVQAGGSLRLSCAASGSIFIVYAMGWYRQAPGKERELVATISWSGGSTSYADSVKGRFTISRDNAKNTVYLQMNSLKPEDTAVYYCNTLVRITEYDSWGQGTQVTVSS”, for which the “polyreactivity (PSR sort gate)” value was “low polyreactivity”.
The same measure for “QVQLVESGGGLVQAGGSLRLSCAASGSIFGPYAMGWYRQAPGKERELVAAITKSGGSTYYADSVKGRFTISRDNAKNTVYLQMNSLKPEDTSVYYCAADYGHEYWGQGTQVTVSS”: “low polyreactivity”; for “QVQLVESGGGLVQAGGSLRLSCAASGSTFARNAMGWYRQAPGKEREFVATISSSGGRTYYADSVKGRFTISRDIAKNTVYLQMNSLNPEDTAVYYCNKALRTYPLFYYWGQGTQVTVSS”: “high polyreactivity”.
The same measure for “QVQLVESGGGLVQAGGSLRLSCAASGSTFHWYAMGWYRQAPGKERELVAAITSGGSTYYADSVKGRFTISRDNAKNTVYLQMNSLKPEDTAVYYCNADRVDSFFDGPSRGYDYWGQGTQVTVSS”: “low polyreactivity”.
“QVQLVESGGGLVQAGGSQRLSCAASGRIFPGNAMGWYRQAPGKERELVAAIRWSGGSTYYADSVKGRFTISRDNAKNTVYLQMNSLKPEDTAVFYCAKDRGSVFKRKYYYWGQGTQVTVSS”: the “polyreactivity (PSR sort gate)” value is listed as “low polyreactivity”.
The same measure for “QVQLVESGGGLVQAGGSLRLSCADSGRNFYIYAMGWYRKAPGKERELVAAISISGSTYYADSVKGRFTISRDNAKNTVFLQMNSLKPEDTAVYYCAARDPGVAVGAAFDSWGQGTQVTVSS”: “low polyreactivity”.
For “QVQIVDSGGGLVQAGGSLRLSCAASGLIIGPYAMGWYRQAPGKERELVAAITSGTTTYYADSVKGRFTISRDNAKNTVYLQMNSLKPEDTAVYYCAAYWPVNSQPIQIGYLYDYWGQGTQVTVSS”, the “polyreactivity (PSR sort gate)” value is listed as “low polyreactivity”.

The values are drawn from the nanobody polyreactivity screen of Harvey et al. (2022).
